In patent US20240034800A1 (MEDYTOX, published 2024):
Changes are numbered by the printed parent chain. Names and notes keep the numbering of the source. Values joined by “and” are separate entries in the source; they are usually repeats but may differ in a detail not shown here. Equal entries are not always repeated.

Assays:
Mouse HVEM-Fc [1] = target: T1, Mouse HVEM-Fc (mouse, UniProt Q80WM9); assay: ELISA, coated mouse HVEM-mFc 0.2 ug/ml, anti-human IgG4-HRP, SigmaPlot fit
T1 construct: part fused to Fc; also called mouse HVEM-mFc; mHVEM
T1 sequence (fusion chain, looked up): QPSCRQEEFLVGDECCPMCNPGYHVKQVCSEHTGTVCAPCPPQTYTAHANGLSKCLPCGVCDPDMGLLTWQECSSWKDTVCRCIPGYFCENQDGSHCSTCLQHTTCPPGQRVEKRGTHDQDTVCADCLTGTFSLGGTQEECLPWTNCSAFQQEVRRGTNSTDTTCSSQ
Procedure: (§1) The binding ability of the full-size human antibody to HVEM was analyzed using an ELISA testing method. 0.2 μg/ml of each of human HVEM-hFc, cynomolgus monkey HVEM-hFc, and mouse HVEM-mFc proteins was coated on a 96-half-well plate for immunosorbent assay. To inhibit non-specific binding, reaction was carried out in phosphate buffered saline (PBS) containing 3% bovine serum albumin (BSA) for 1 hour, followed by treatment with serially diluted antibodies for 1 hour. To measure the amounts of the bound antibodies, horse radish peroxidase (HRP)-conjugated anti-human IgG4 antibody was used, and for the activity of HRP, a color reaction was induced using a 3,3′,5,5′-tetramethylbenzidine (TMB) substrate solution, and the reaction was terminated with 1N sulfuric acid. […] In the middle of each step, washing was performed three times using PBS (PBST) containing 0.1% Triton X-100. The binding ability of the antibodies was derived using SigmaPlot.

human HVEM-Fc protein [2] = target: T2, human HVEM-Fc protein (human, UniProt Q92956 39-202, limits assumed); assay: ELISA, coated human HVEM-hFc 0.2 ug/ml, anti-human IgG4-HRP, SigmaPlot fit
T2 construct: not shown: Fc
T2 sequence (looked up): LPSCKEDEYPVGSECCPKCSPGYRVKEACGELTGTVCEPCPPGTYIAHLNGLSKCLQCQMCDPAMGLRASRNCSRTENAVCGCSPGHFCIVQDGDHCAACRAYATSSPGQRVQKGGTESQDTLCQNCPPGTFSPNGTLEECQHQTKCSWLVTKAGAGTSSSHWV

human HVEM-Fc protein [3] = target: T2, human HVEM-Fc protein; assay: ELISA, coated human HVEM-hFc, anti-human IgG4-HRP
Procedure: as §1

human HVEM-Fc protein [4] = target: T2, human HVEM-Fc protein; assay: Octet BLI
human HVEM-Fc protein [5] = target: T2, human HVEM-Fc protein; assay: Octet BLI (column kdis)
Monkey HVEM-Fc = target: T3, Monkey HVEM-Fc (Macaca fascicularis, UniProt A0A2K5W0R1); assay: ELISA, coated cynomolgus monkey HVEM-hFc, anti-human IgG4-HRP
T3 construct: part fused to Fc; also called cynomolgus monkey HVEM-hFc
T3 sequence (fusion chain): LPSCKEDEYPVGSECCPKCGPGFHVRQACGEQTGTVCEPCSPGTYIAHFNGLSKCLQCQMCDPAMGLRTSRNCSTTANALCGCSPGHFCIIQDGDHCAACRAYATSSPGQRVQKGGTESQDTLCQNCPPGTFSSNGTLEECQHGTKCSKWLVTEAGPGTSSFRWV
Procedure: as §1

Mouse HVEM-Fc [6] = target: T1, Mouse HVEM-Fc; assay: ELISA, coated mouse HVEM-mFc, anti-human IgG4-HRP
Procedure: as §1

human HVEM-Fc protein [7] = target: T2, human HVEM-Fc protein; assay: flow cytometry competition: human HVEM-Fc 1 ug/ml on BTLA-expressing Jurkat cells, antibody 10 or 100 nM; blocked ligand BTLA
Procedure: For flow cytometry, the stained cell lines were fixed on ice for 20 minutes using PBS containing 2% formaldehyde and stored in a refrigerator until flow cytometry.

B1: HVEM001 (antibody, human IgG4 S228P, kappa, V domains shown)
VH: EVQLLESGGGLVQPGGSLRLSCAASGFTFSNYAMHWVRQAPGKGLEWVSNINPSGGSTTYAQEFEDRFTISRDNSKNTLYLQMNSLRAEDTAVYYCATRSRQDSWGYFDIWGQGTLVTVSS
VL: EIVLTQSPGTLSLSPGERATLSCRASRSISNYLAWYQQKPGQAPRLLIYGASTRATGIPDRFSGSGSGTDFTLTISRLEPEDFAVYYCQQYGSSPPLTFGQGTKVEIKR
Mouse HVEM-Fc [1]
  binding affinity (ELISA fit): 151 pM
Human HVEM-Fc protein [2]
  binding affinity (ELISA fit): 22 pM
Human HVEM-Fc protein [3]
  binding affinity (ELISA fit; table in pM): 32.8 pM
Human HVEM-Fc protein [4]
  Kd: 0.0263 nM
  kon: 287000 M⁻¹ s⁻¹
Human HVEM-Fc protein [5]
  koff: 7.55e-06 s⁻¹
Monkey HVEM-Fc
  binding affinity (ELISA fit; table in pM): 341 pM
Mouse HVEM-Fc [6]
  binding affinity (ELISA fit; table in pM): 228 pM

B2: HVEM039 (antibody, human IgG4 S228P, kappa, V domains shown)
VH: EVQLLESGGGLVQPGGSLRLSCAASGFTFSSYGMNWVRQAPGKGLEWVSIINPSGDTTTYAQKFQGRFTISRDNSKNTLYLQMNSLRAEDTAVYYCARGRGAFDYWGQGTLVTVSS
VL: B1 VL with I29V, S30G, N31K, S52T, T53S, L97V
Mouse HVEM-Fc [1]
  binding affinity (ELISA fit): 334 pM
Human HVEM-Fc protein [2]
  binding affinity (ELISA fit): 19.5 pM

B3: HVEM040 (antibody, human IgG4 S228P, kappa, V domains shown)
VH: EVQLLESGGGLVQPGGSLRLSCAASGFTFSNYGMSWVRQAPGKGLEWVSSIYYSGDTYYNPSLESRFTISRDNSKNTLYLQMNSLRAEDTAVYYCASGSNAFDIWGQGTLVTVSS
VL: B1 VL with I29V, S30G, N31K, T53S, A55T, L97V
Mouse HVEM-Fc [1]
  binding affinity (ELISA fit): 126 pM
Human HVEM-Fc protein [2]
  binding affinity (ELISA fit): 20 pM

B4: HVEM018 (antibody, human IgG4 S228P, kappa, V domains shown)
VH: EVQLLESGGGLVQPGGSLRLSCAASGFTFSSYSMNWVRQAPGKGLEWVSAISGSGGGTYSADSVKGRFTISRDNSKNTLYLQMNSLRAEDTAVYYCARGKAYGYFDYWGQGTLVTVSS
VL: B1 VL with I29V, S30G, N31K, G50A, R54L, A55Q, T56S, L97V, T98I
Mouse HVEM-Fc [1]
  binding affinity (ELISA fit): 158 pM
Human HVEM-Fc protein [2]
  binding affinity (ELISA fit): 25.9 pM

B5: HVEM041 (antibody, human IgG4 S228P, kappa, V domains shown)
VH: EVQLLESGGGLVQPGGSLRLSCAASGFTFSSYAMSWVRQAPGKGLEWVSEISQSGSSNYNPSLKSRFTISRDNSKNTLYLQMNSLRAEDTAVYYCATGRWRFDYWGQGTLVTVSS
VL: B1 VL with I29V, S30G, N31K, L97V
Mouse HVEM-Fc [1]
  binding affinity (ELISA fit): 141 pM
Human HVEM-Fc protein [2]
  binding affinity (ELISA fit): 20.1 pM

B6: HVEM021 (antibody, human IgG4 S228P, kappa, V domains shown)
VH: EVQLLESGGGLVQPGGSLRLSCAASGFTFSTFAMHWVRQAPGKGLEWVSSIYPSGNTHYKPSLKSRFTISRDNSKNTLYLQMNSLRAEDTAVYYCARRHPGGGWIFDYWGQGTLVTVSS
VL: B1 VL with I29V, S30G, N31K, L97V
notes: Full-size human IgG4 (S228P) kappa antibody made in ExpiCHO-S; human IL-2 signal peptide is cleaved and left out; also called HVEM021 antibody
Human HVEM-Fc protein [3]
  binding affinity (ELISA fit; table in pM): 32.5 pM
Human HVEM-Fc protein [4]
  Kd: 0.0344 nM
  kon: 471000 M⁻¹ s⁻¹
Human HVEM-Fc protein [5]
  koff: 1.62e-06 s⁻¹
Monkey HVEM-Fc
  binding affinity (ELISA fit; table in pM): 61.8 pM
Mouse HVEM-Fc [6]
  binding affinity (ELISA fit; table in pM): 55.6 pM

B7: HVEM030 (antibody, human IgG4 S228P, kappa, V domains shown)
VH: EVQLLESGGGLVQPGGSLRLSCAASGFTFSGYYWTWVRQAPGKGLEWVSTISASGDSTYYADSVKGRFTISRDNSKNTLYLQMNSLRAEDTAVYYCAHDRTFGYFDYWGQGTLVTVSS
VL: B1 VL with I29V, S30G, N31K, G50A, T53S, R54L, A55Q, T56S, L97I
Mouse HVEM-Fc [1]
  binding affinity (ELISA fit): 16.6 pM
Human HVEM-Fc protein [2]
  binding affinity (ELISA fit): 16.1 pM

B8: HVEM011 (antibody, human IgG4 S228P, kappa, V domains shown)
VH: EVQLLESGGGLVQPGGSLRLSCAASEFTFSSYAMHWVRQAPGKGLEWVSSITSASSYIDYADSVKGRFTISRDNSKNTLYLQMNSLRAEDTAVYYCARGTRGLFDHWGQGTLVTVSS
VL: B1 VL with I29V, S30G, N31K, G50L, A51G, T53N, T56S, L97I
notes: Full-size human IgG4 (S228P) kappa antibody made in ExpiCHO-S; human IL-2 signal peptide is cleaved and left out; also called HVEM011 antibody
Mouse HVEM-Fc [1]
  binding affinity (ELISA fit): 219 pM
Human HVEM-Fc protein [2]
  binding affinity (ELISA fit): 23.4 pM
Human HVEM-Fc protein [3]
  binding affinity (ELISA fit; table in pM): 25.9 pM
Human HVEM-Fc protein [4]
  Kd: 0.0225 nM and 0.0146 nM
  kon: 425000 M⁻¹ s⁻¹ and 598000 M⁻¹ s⁻¹
Human HVEM-Fc protein [5]
  koff: 9.53e-06 s⁻¹ and 8.75e-06 s⁻¹
Monkey HVEM-Fc
  binding affinity (ELISA fit; table in pM): 65.9 pM
Mouse HVEM-Fc [6]
  binding affinity (ELISA fit; table in pM): 203 pM

B9: HVEM017 (antibody, human IgG4 S228P, kappa, V domains shown)
VH: EVQLLESGGGLVQPGGSLRLSCAASGFTFSTNYMSWVRQAPGKGLEWVSLISYSGSNKYYADSVKGRFTISHDNSKNTLYLQMNSLRAEDTAVYYCARGRGNTISGTFDLWGQGTLVTVSS
VL: B1 VL with I29V, S30G, N31K, G50S, R54L, A55S, T56S, L97I
notes: also called HVEM0017
Mouse HVEM-Fc [1]
  binding affinity (ELISA fit): 112 pM
Human HVEM-Fc protein [2]
  binding affinity (ELISA fit): 21.5 pM

B10: HVEM004 (antibody, human IgG4 S228P, kappa, V domains shown)
VH: EVQLLESGGGLVQPGGSLRLSCAASGFTFSSYAMSWVRQAPGKGLEWVSSISGSGGKTYYADSVRGRFTISRDNSKNTLYLQMNSLRAEDTAVYYCAKGVGYTTSGRFDYWGQGTLVTVSS
VL: B1 VL with N31S, A51V, S94W, L97F
Human HVEM-Fc protein [7]
  binding result: binds

B11: HVEM032 (antibody, human IgG4 S228P, kappa, V domains shown)
VH: EVQLLESGGGLVQPGGSLRLSCAASGFTFSNYAIHWVRQAPGKGLEWVSTISSPGSTINYADSVKGRFTISRDNSKNTLYLQMNSLRAEDTAVYYCASGYLYPAMDVWGQGTLVTVSS
VL: B1 VL with I29V, S30G, N31K, A34S, T53K, R54L, A55Q, T56S, S94W, L97F
Mouse HVEM-Fc [1]
  binding affinity (ELISA fit): 114 pM
Human HVEM-Fc protein [2]
  binding affinity (ELISA fit): 16.9 pM
